Test results published in patent US20060257938A1, “Method of screening for drugs that block ligand binding to a lipid binding protein” (priority 2005, published 2006).
Positions count from the first letter of the chain named.

B1: 38H, 72A (protein, listed as Rattus norvegicus)
chain: AFDGTWKVDRNENYEKFMEKMGINVVKRKLGAHDNLKHTITQEGNKFTVKESSNFRNIDVVFELGVDFAYSAADGTELTGTWTMEGNKLVGKFKRVDNGKELIAVREISGNELIQTYTYEGVEAKRIFKKE
modifications: PEPTIDE (1)...(131) wild-type rat intestinal fatty acid binding protein
B2: 106H, 72A (protein, listed as Rattus norvegicus)
chain: B1 chain with H38L, R106H
modifications: PEPTIDE (1)...(131) wild-type rat intestinal fatty acid binding protein
B3: 14L 72G 117V (protein, listed as Rattus norvegicus)
chain: B1 chain with Y14L, H38L, A72G, Y117V
modifications: PEPTIDE (1)...(131) wild-type rat intestinal fatty acid binding protein
B4: 106L, 72A (protein, listed as Rattus norvegicus)
chain: B1 chain with H38L, R106L
modifications: PEPTIDE (1)...(131) wild-type rat intestinal fatty acid binding protein
B5: 106A, 72A (protein, listed as Rattus norvegicus)
chain: B1 chain with H38L, R106A
modifications: PEPTIDE (1)...(131) wild-type rat intestinal fatty acid binding protein
B6: 55Y, 72A (protein, listed as Rattus norvegicus)
chain: B1 chain with H38L, F55Y
modifications: PEPTIDE (1)...(131) wild-type rat intestinal fatty acid binding protein
B7: 14L 38M 72A 117F (protein, listed as Rattus norvegicus)
chain: B1 chain with Y14L, H38M, Y117F
modifications: PEPTIDE (1)...(131) wild-type rat intestinal fatty acid binding protein
B8: 49N, 72A (protein, listed as Rattus norvegicus)
chain: B1 chain with H38L, V49N
modifications: PEPTIDE (1)...(131) wild-type rat intestinal fatty acid binding protein
B9: 106D, 72A (protein, listed as Rattus norvegicus)
chain: B1 chain with H38L, R106D
modifications: PEPTIDE (1)...(131) wild-type rat intestinal fatty acid binding protein
B10: 106I, 72A (protein, listed as Rattus norvegicus)
chain: B1 chain with H38L, R106I
modifications: PEPTIDE (1)...(131) wild-type rat intestinal fatty acid binding protein
B11: 106S, 72A (protein, listed as Rattus norvegicus)
chain: B1 chain with H38L, R106S
modifications: PEPTIDE (1)...(131) wild-type rat intestinal fatty acid binding protein
B12: 14I 72A (protein, listed as Rattus norvegicus)
chain: B1 chain with Y14I, H38L
modifications: PEPTIDE (1)...(131) wild-type rat intestinal fatty acid binding protein
B13: 55L, 72A (protein, listed as Rattus norvegicus)
chain: B1 chain with H38L, F55L
modifications: PEPTIDE (1)...(131) wild-type rat intestinal fatty acid binding protein
B14: 11Y, 72A (protein, listed as Rattus norvegicus)
chain: B1 chain with N11Y, H38L
modifications: PEPTIDE (1)...(131) wild-type rat intestinal fatty acid binding protein
B15: 106T, 72A (protein, listed as Rattus norvegicus)
chain: B1 chain with H38L, R106T
modifications: PEPTIDE (1)...(131) wild-type rat intestinal fatty acid binding protein
B16: 14I 38I 72V (protein, listed as Rattus norvegicus)
chain: B1 chain with Y14I, H38I, A72V
modifications: PEPTIDE (1)...(131) wild-type rat intestinal fatty acid binding protein
B17: 106V, 72A (protein, listed as Rattus norvegicus)
chain: B1 chain with H38L, R106V
modifications: PEPTIDE (1)...(131) wild-type rat intestinal fatty acid binding protein
B18: 11I, 72A (protein, listed as Rattus norvegicus)
chain: B1 chain with N11I, H38L
modifications: PEPTIDE (1)...(131) wild-type rat intestinal fatty acid binding protein
B19: 23L, 72A (protein, listed as Rattus norvegicus)
chain: B1 chain with I23L, H38L
modifications: PEPTIDE (1)...(131) wild-type rat intestinal fatty acid binding protein
B20: 14I 72G 117V (protein, listed as Rattus norvegicus)
chain: B1 chain with Y14I, H38L, A72G, Y117V
modifications: PEPTIDE (1)...(131) wild-type rat intestinal fatty acid binding protein
B21: 38M 72G 117F (protein, listed as Rattus norvegicus)
chain: B1 chain with H38M, A72G, Y117F
modifications: PEPTIDE (1)...(131) wild-type rat intestinal fatty acid binding protein
B22: 14L 72A (protein, listed as Rattus norvegicus)
chain: B1 chain with Y14L, H38L
modifications: PEPTIDE (1)...(131) wild-type rat intestinal fatty acid binding protein
B23: 106N, 72A (protein, listed as Rattus norvegicus)
chain: B1 chain with H38L, R106N
modifications: PEPTIDE (1)...(131) wild-type rat intestinal fatty acid binding protein

assay: Probe fluorescence ratio response to oleic acid relative to ADIFAB2; assay type: binding; details: response relative to ADIFAB2
In short: (§1)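 Each fatty acid's response was expressed relative to ADIFAB2, the rI-FABP-L72A probe, as ΔR/ΔRreference. ΔR is the change in the background-corrected two-wavelength intensity ratio R=Fλ1/Fλ2 from its analyte-free baseline R0. Emission was read near about 420-480 nm for unbound and about 495-580 nm for FFA-bound probe.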

Going from B1 to B2, the “DR/DR OA” value falls from 0.955 to 0.732.

Compared with B3, B4 is higher in “DR/DR OA” value: 0.297 for the first, 0.431 for the second.

Going from B5 to B6, the “DR/DR OA” value falls from 0.596 to 0.329.

Compared with B7, B8 is higher in “DR/DR OA” value: 0.458 for the first, 1.108 for the second.

First: B9
Second: B10
The “DR/DR OA” value of the first is lower: 0.423 for the first, 0.661 for the second.

B11 and B12 are the same in “DR/DR OA” value: 0.478 for the first, 0.478 for the second.

Compared with B13, B14 is lower in “DR/DR OA” value: 0.822 for the first, 0.156 for the second.

Compared with B15, B16 is lower in “DR/DR OA” value: 0.434 for the first, 0.398 for the second.

Compared with B17, B18 is lower in “DR/DR OA” value: 0.657 for the first, 0.387 for the second.

Going from B19 to B20, the “DR/DR OA” value falls from 1.057 to 0.337.

Compared with B21, B22 is lower in “DR/DR OA” value: 0.686 for the first, 0.446 for the second.

For B23, the “DR/DR OA” value was 0.496.

assay: Probe fluorescence ratio response to linoleic acid relative to ADIFAB2; assay type: binding; details: response relative to ADIFAB2
In short: as §1

Going from B1 to B2, the “DR/DR LA” value falls from 0.905 to 0.669.

Going from B3 to B4, the “DR/DR LA” value falls from 0.548 to 0.382.

First: B5
Second: B6
The “DR/DR LA” value of the first is higher: 0.515 for the first, 0.324 for the second.

Going from B7 to B8, the “DR/DR LA” value rises from 0.830 to 1.099.

Compared with B9, B10 is lower in “DR/DR LA” value: 0.584 for the first, 0.563 for the second.

First: B11
Second: B12
The “DR/DR LA” value of the first is lower: 0.355 for the first, 0.944 for the second.

Going from B13 to B14, the “DR/DR LA” value falls from 0.706 to 0.330.

Compared with B15, B16 is higher in “DR/DR LA” value: 0.246 for the first, 0.862 for the second.

Compared with B17, B18 is lower in “DR/DR LA” value: 0.574 for the first, 0.546 for the second.

Going from B19 to B20, the “DR/DR LA” value falls from 1.041 to 0.622.

Going from B21 to B22, the “DR/DR LA” value rises from 0.748 to 0.766.

For B23, the “DR/DR LA” value was 0.451.

assay: Probe fluorescence ratio response to palmitic acid relative to ADIFAB2; assay type: binding; details: response relative to ADIFAB2
In short: as §1

Going from B1 to B2, the “DR/DR PA” value falls from 0.624 to 0.258.

First: B3
Second: B4
The “DR/DR PA” value of the first is lower: 0.055 for the first, 0.183 for the second.

First: B5
Second: B6
The “DR/DR PA” value of the first is lower: 0.164 for the first, 0.249 for the second.

Compared with B7, B8 is higher in “DR/DR PA” value: 0.472 for the first, 0.740 for the second.

Going from B9 to B10, the “DR/DR PA” value rises from 0.147 to 0.223.

First: B11
Second: B12
The “DR/DR PA” value of the first is lower: 0.149 for the first, 0.762 for the second.

Compared with B13, B14 is lower in “DR/DR PA” value: 0.631 for the first, 0.296 for the second.

Compared with B15, B16 is higher in “DR/DR PA” value: 0.118 for the first, 0.844 for the second.

Going from B17 to B18, the “DR/DR PA” value rises from 0.191 to 1.186.

Going from B19 to B20, the “DR/DR PA” value falls from 0.928 to 0.085.

Going from B21 to B22, the “DR/DR PA” value rises from 0.438 to 0.534.

With B23 the “DR/DR PA” value was 0.152.

assay: Probe fluorescence ratio response to linolenic acid relative to ADIFAB2; assay type: binding; details: response relative to ADIFAB2
In short: as §1

First: B1
Second: B2
The “DR/DR LNA” value of the first is higher: 0.864 for the first, 0.633 for the second.

Going from B3 to B4, the “DR/DR LNA” value falls from 0.513 to 0.364.

First: B5
Second: B6
The “DR/DR LNA” value of the first is higher: 0.518 for the first, 0.335 for the second.

Going from B7 to B8, the “DR/DR LNA” value rises from 0.921 to 1.181.

First: B9
Second: B10
The “DR/DR LNA” value of the first is lower: 0.591 for the first, 0.624 for the second.

First: B11
Second: B12
The “DR/DR LNA” value of the first is lower: 0.403 for the first, 0.997 for the second.

Compared with B13, B14 is lower in “DR/DR LNA” value: 0.719 for the first, 0.311 for the second.

Going from B15 to B16, the “DR/DR LNA” value rises from 0.367 to 0.926.

Compared with B17, B18 is lower in “DR/DR LNA” value: 0.592 for the first, 0.507 for the second.

Going from B19 to B20, the “DR/DR LNA” value falls from 1.025 to 0.547.

Compared with B21, B22 is higher in “DR/DR LNA” value: 0.733 for the first, 0.867 for the second.

In the case of B23, the “DR/DR LNA” value is reported as 0.445.

assay: Probe fluorescence ratio response to arachidonic acid relative to ADIFAB2; assay type: binding; details: arachidonic acid; response relative to ADIFAB2
In short: as §1

Compared with B1, B2 is lower in “DR/DR AA” value: 0.998 for the first, 0.636 for the second.

Compared with B3, B4 is lower in “DR/DR AA” value: 0.873 for the first, 0.383 for the second.

First: B5
Second: B6
The “DR/DR AA” value of the first is lower: 0.389 for the first, 0.471 for the second.

First: B7
Second: B8
The “DR/DR AA” value of the first is lower: 0.861 for the first, 1.255 for the second.

Compared with B9, B10 is lower in “DR/DR AA” value: 0.502 for the first, 0.481 for the second.

Going from B11 to B12, the “DR/DR AA” value rises from 0.321 to 0.825.

First: B13
Second: B14
The “DR/DR AA” value of the first is higher: 0.863 for the first, 0.516 for the second.

First: B15
Second: B16
The “DR/DR AA” value of the first is lower: 0.250 for the first, 0.715 for the second.

Going from B17 to B18, the “DR/DR AA” value rises from 0.398 to 0.584.

Going from B19 to B20, the “DR/DR AA” value falls from 1.174 to 0.928.

First: B21
Second: B22
The “DR/DR AA” value of the first is higher: 1.280 for the first, 0.838 for the second.

For B23, the “DR/DR AA” value was 0.384.
